Each block holds one binder with its values, some of them ahead of it.
Key:
[1] = target: T1, O2-bH; experiment: two-hybrid library CCNG1;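 further: natural log of median RNA to DNA barcode read ratio; higher means stronger binding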
T1 chain: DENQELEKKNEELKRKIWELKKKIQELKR

[2] = target: T2, O5-bH; experiment: two-hybrid library CCNG1;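 further: natural log of median RNA to DNA barcode read ratio; higher means stronger binding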
T2 chain: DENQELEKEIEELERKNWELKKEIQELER

[3] = target: T3, O9-bH; experiment: two-hybrid library CCNG1;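 further: natural log of median RNA to DNA barcode read ratio; higher means stronger binding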
T3 chain: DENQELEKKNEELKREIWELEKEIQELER

[4] = target: T4, O12-bH; experiment: two-hybrid library CCNG1;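 further: natural log of median RNA to DNA barcode read ratio; higher means stronger binding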
T4 chain: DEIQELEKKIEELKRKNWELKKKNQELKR

[5] = target: T5, O3-bH; experiment: two-hybrid library CCNG1
T5 chain: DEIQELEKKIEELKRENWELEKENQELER

[6] = target: T6, O13-bH; experiment: two-hybrid library CCNG1
T6 chain: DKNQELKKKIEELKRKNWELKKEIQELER

[7] = target: T7, O4-bH; experiment: two-hybrid library CCNG1
T7 chain: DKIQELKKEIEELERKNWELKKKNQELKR

[8] = target: T8, O16-bH; experiment: two-hybrid library CCNG1
T8 chain: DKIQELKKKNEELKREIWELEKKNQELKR

[9] = target: T9, O7-bH; experiment: two-hybrid library CCNG1
T9 chain: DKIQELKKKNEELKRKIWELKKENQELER

[10] = target: T10, O8-bH; experiment: two-hybrid library CCNG1
T10 chain: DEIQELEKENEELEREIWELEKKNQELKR

[11] = target: T11, O15-bH; experiment: two-hybrid library CCNG1
T11 chain: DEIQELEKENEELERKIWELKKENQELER

[12] = target: T12, O6-bH; experiment: two-hybrid library CCNG1
T12 chain: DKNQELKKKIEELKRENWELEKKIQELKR

[13] = target: T13, O14-bH; experiment: two-hybrid library CCNG1
T13 chain: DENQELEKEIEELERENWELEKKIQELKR

[14] = target: T14, 4H2442-AA; experiment: two-hybrid library CCmax
T14 chain: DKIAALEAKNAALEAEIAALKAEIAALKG

[15] = target: T15, 4H3354-AA; experiment: two-hybrid library CCmax; conditions: mean of both orientations
T15 chain: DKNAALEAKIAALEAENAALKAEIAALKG

[16] = target: T16, 4H4001-AA; experiment: two-hybrid library CCmax; conditions: mean of both orientations
T16 chain: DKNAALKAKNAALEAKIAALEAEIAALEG

[17] = target: T17, 4H717-AA; experiment: two-hybrid library CCmax; conditions: mean of both orientations
T17 chain: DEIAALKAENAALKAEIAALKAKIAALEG

[18] = target: T18, 4H918-AA; experiment: two-hybrid library CCmax; conditions: mean of both orientations
T18 chain: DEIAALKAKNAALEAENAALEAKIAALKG

[19] = target: T19, 4H883-AA; experiment: two-hybrid library CCmax; conditions: mean of both orientations
T19 chain: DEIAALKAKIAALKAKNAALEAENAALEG

[20] = target: T20, 4H797-AA; experiment: two-hybrid library CCmax; conditions: mean of both orientations
T20 chain: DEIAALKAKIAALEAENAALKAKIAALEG

[21] = target: T21, 4H3112-AA; experiment: two-hybrid library CCmax; conditions: mean of both orientations
T21 chain: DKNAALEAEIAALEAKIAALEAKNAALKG

[22] = target: T22, 4H3855-AA; experiment: two-hybrid library CCmax; conditions: mean of both orientations
T22 chain: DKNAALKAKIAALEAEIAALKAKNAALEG

[23] = target: T23, 4H3427-AA; experiment: two-hybrid library CCmax; conditions: mean of both orientations
T23 chain: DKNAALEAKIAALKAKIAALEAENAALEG

[24] = target: T24, 4H568-AA; experiment: two-hybrid library CCmax; conditions: mean of both orientations
T24 chain: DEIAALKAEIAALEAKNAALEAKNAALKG

[25] = target: T25, 4H3782-AA; experiment: two-hybrid library CCmax; conditions: mean of both orientations
T25 chain: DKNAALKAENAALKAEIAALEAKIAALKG

[26] = target: T26, 4H953-AA; experiment: two-hybrid library CCmax; conditions: mean of both orientations
T26 chain: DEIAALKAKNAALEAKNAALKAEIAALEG

[27] = target: T27, 4H687-AA; experiment: two-hybrid library CCmax; conditions: mean of both orientations
T27 chain: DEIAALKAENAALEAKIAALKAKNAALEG

[28] = target: T28, 4H967-AA; experiment: two-hybrid library CCmax; conditions: mean of both orientations
T28 chain: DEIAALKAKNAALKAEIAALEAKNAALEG

[29] = target: T29, P7SH; experiment: two-hybrid library CCNG1
T29 chain: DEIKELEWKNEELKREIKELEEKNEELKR

[30] = target: T30, P6SH; experiment: two-hybrid library CCNG1
T30 chain: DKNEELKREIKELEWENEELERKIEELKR

[31] = target: T31, P8SH; experiment: two-hybrid library CCNG1
T31 chain: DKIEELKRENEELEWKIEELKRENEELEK

interaction score [1]: -1.26
interaction score [2]: -1.26
interaction score [3]: 0.102
interaction score [4]: 0.775
interaction score [5]: 1.56
interaction score [6]: 0.332
interaction score [7]: 1.12
interaction score [8]: -0.436
interaction score [9]: -0.37
interaction score [10]: 1.12
interaction score [11]: 0.483
interaction score [12]: 0.619
interaction score [13]: -1.38
Binder: DEIQELEKKIEELKRKNWELKKKNQELKR [O12-bH]

interaction score [14]: 1.97
interaction score [15]: -1.37
interaction score [16]: -2.06
interaction score [17]: -1.4
interaction score [18]: -1.29
interaction score [19]: -1.82
interaction score [20]: -1.52
interaction score [21]: -1.4
interaction score [22]: -1.56
interaction score [23]: -1.52
interaction score [24]: -1.38
interaction score [25]: -1.14
interaction score [26]: -1.67
interaction score [27]: -1.85
interaction score [28]: -2.2
Binder: DKIAALEAKNAALEAEIAALKAEIAALKG [4H2442-AA]

interaction score [29]: 0.762
interaction score [30]: 0.574
interaction score [31]: 0.565
Binder: DKNEELKREIKELEWENEELERKIEELKR [P6SH]
